Assays:
Assay in all cases: purified protein
[1] = substrate: Nc1nc2c(ncn2[C@H]2C[C@H](OP(=O)(O)O)[C@@H](COP(=O)(O)O)O2)c(=O)[nH]1; settings: 25 mM HEPES, 250 mM KCl, pH 7.5, 30 °C
[2] = substrate: Nc1ccn([C@H]2C[C@H](OP(=O)(O)O)[C@@H](COP(=O)(O)O)O2)c(=O)n1; settings: 25 mM HEPES, 250 mM KCl, pH 7.5, 30 °C
[3] = substrate: Nc1ncnc2c1ncn2[C@H]1C[C@H](OP(=O)(O)O)[C@@H](COP(=O)(O)O)O1; settings: 25 mM HEPES, 250 mM KCl, pH 7.5, 30 °C
[4] = substrate: Nc1ncnc2c1ncn2[C@@H]1O[C@H](COP(=O)(O)O)[C@@H](OP(=O)(O)O)[C@H]1O; settings: 25 mM HEPES, 250 mM KCl, pH 7.5, 30 °C
[5] = substrate: Nc1ncnc2c1ncn2[C@@H]1O[C@H](COP(=O)(O)O[C@H]2[C@@H](O)[C@H](n3cnc4c(N)ncnc43)O[C@@H]2COP(=O)(O)O)[C@@H](O)[C@H]1O; settings: 50 mM HEPES, 250 mM KCl, 5.0 mM MgCl2, pH 7.5
[6] = substrate: O=c1ccn([C@H]2C[C@H](OP(=O)(O)O)[C@@H](COP(=O)(O)O)O2)c(=O)[nH]1; settings: 25 mM HEPES, 250 mM KCl, pH 7.5, 30 °C
[7] = substrate: O=c1[nH]cnc2c1ncn2[C@H]1C[C@H](OP(=O)(O)O)[C@@H](COP(=O)(O)O)O1; settings: 25 mM HEPES, 250 mM KCl, pH 7.5, 30 °C
[8] = substrate: Cc1cn([C@H]2C[C@H](OP(=O)(O)O)[C@@H](COP(=O)(O)O)O2)c(=O)[nH]c1=O; settings: 25 mM HEPES, 250 mM KCl, pH 7.5, 30 °C
[9] = substrate: CNc1ncnc2c1ncn2[C@@H]1O[C@H](COP(=O)(O)O)[C@@H](OP(=O)(O)O)[C@H]1O; settings: 25 mM HEPES, 250 mM KCl, pH 7.5, 30 °C

B1: Cv1693 (Chromobacterium violaceum ATCC 12472) (protein)
chain: MANIDLHFHSRTSDGALTPTEVIDRAAARAPALLALTDHDCTGGLAEAAAAAARRGIPFLNGVEVSVSWGRHTVHIVGLGIDPAEPALAAGLKSIREGRLERARQMGASLEAAGIAGCFDGAMRWCDNPEMISRTHFARHLVDSGAVKDMRTVFRKYLTPGKPGYVSHQWASLEDAVGWIVGAGGMAVIAHPGRYDMGRTLIERLILDFQAAGGQGIEVASGSHSLDDMHKFALHADRHGLYASSGSDFHAPGEGGRDVGHTEDLPPICRPIWRELEARILRPAD
B1 showed a Km [1] of 5.2 ± 0.4 µM, a kcat [1] of 4.2 ± 0.1 s⁻¹ and a kcat/Km [1] of 790000 ± 60000 M⁻¹ s⁻¹. For the same protein, the Km [2] was 26 ± 3 µM, the kcat [2] was 9.4 ± 0.3 s⁻¹ and the kcat/Km [2] was 360000 ± 50000 M⁻¹ s⁻¹. For the same protein, the Km [3] was 10.2 ± 0.9 µM, the kcat [3] was 7.1 ± 0.2 s⁻¹ and the kcat/Km [3] was 700000 ± 60000 M⁻¹ s⁻¹. It also gave a Km [4] of 15.5 ± 2.4 µM, a kcat [4] of 22 ± 1 s⁻¹ and a kcat/Km [4] of 1.4e+06 ± 200000 M⁻¹ s⁻¹. For the same protein, the Km [5] was 1.6 ± 0.2 µM, the kcat [5] was 0.05 ± 0.01 s⁻¹ and the kcat/Km [5] was 32000 ± 3000 M⁻¹ s⁻¹. The Km [6] was 29 ± 4 µM, the kcat [6] was 5.2 ± 0.2 s⁻¹ and the kcat/Km [6] was 180000 ± 20000 M⁻¹ s⁻¹. The Km [7] was 22 ± 3 µM, the kcat [7] was 4.3 ± 0.2 s⁻¹ and the kcat/Km [7] was 190000 ± 30000 M⁻¹ s⁻¹. For the same protein, the Km [8] was 9.3 ± 1.0 µM, the kcat [8] was 3.3 ± 0.1 s⁻¹ and the kcat/Km [8] was 360000 ± 40000 M⁻¹ s⁻¹. The Km [9] was 5.4 ± 1.0 µM, the kcat [9] was 11.6 ± 0.4 s⁻¹ and the kcat/Km [9] was 2.1e+06 ± 400000 M⁻¹ s⁻¹.

From PMC3985815
